Measured values taken from patent US20100291638.

Columns and labels:
[1] = system: T1, DNA polymerase 3173 (uncultured hot spring virus (Octopus Spring)); conditions: reverse transcription, 60 C 20 min, MgCl2 and MnCl2
T1 sequence: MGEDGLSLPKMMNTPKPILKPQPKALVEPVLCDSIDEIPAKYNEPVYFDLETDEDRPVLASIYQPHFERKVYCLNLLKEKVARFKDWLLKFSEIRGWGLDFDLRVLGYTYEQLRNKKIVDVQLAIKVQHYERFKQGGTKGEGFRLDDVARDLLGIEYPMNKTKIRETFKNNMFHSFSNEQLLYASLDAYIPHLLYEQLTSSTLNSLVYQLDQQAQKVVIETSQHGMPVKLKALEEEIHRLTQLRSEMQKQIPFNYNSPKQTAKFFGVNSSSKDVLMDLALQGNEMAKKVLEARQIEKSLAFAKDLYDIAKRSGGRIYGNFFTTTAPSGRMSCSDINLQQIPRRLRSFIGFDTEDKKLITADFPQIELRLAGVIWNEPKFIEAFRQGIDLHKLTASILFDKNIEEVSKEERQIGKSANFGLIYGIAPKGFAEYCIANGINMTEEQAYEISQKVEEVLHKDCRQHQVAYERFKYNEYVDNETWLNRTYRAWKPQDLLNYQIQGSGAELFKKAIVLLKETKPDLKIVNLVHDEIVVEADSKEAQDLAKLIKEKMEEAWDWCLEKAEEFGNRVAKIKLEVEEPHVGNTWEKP

Tth DNA polymerase = Tth DNA polymerase (UniProt P52028); conditions: reverse transcription, manufacturer's conditions
[2] = target: MMLV reverse transcriptase (Moloney murine leukemia virus) (UniProt P03355); conditions: reverse transcription, manufacturer's conditions
[3] = system: T1, DNA polymerase 3173 (uncultured hot spring virus (Octopus Spring)); conditions: Km for primed M13 DNA; 70 C; dNTPs in excess

Sequence of UniProt P52028 (P52028 whole entry): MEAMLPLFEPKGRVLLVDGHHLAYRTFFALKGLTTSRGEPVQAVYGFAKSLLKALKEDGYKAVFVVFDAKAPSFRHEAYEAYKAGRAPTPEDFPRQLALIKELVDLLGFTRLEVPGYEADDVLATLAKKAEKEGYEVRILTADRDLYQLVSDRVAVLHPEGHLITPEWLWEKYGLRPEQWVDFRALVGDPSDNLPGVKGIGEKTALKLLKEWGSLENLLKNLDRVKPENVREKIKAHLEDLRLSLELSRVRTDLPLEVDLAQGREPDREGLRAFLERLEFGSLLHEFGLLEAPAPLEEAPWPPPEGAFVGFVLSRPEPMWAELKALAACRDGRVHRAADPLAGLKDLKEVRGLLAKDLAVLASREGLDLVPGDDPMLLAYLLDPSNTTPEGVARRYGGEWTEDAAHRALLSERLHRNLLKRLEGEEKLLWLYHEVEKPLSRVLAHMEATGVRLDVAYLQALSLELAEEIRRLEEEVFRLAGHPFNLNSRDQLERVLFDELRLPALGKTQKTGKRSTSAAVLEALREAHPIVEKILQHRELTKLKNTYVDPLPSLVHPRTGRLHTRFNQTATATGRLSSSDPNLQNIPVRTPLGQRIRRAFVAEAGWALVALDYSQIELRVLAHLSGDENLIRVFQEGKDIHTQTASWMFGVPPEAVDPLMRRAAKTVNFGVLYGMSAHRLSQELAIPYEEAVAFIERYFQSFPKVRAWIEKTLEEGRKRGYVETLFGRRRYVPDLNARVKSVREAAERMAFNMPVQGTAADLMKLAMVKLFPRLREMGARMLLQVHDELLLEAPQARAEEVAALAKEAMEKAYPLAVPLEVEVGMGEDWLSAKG

poly rA:oligo dT
activity [1]: 1.04 nmol dTTP | activity (Tth DNA polymerase): 0.802 nmol dTTP | activity [2]: 1.11 nmol dTTP

primed single-stranded M13 DNA
K half [3]: 5.3 nM
